# Patent US12427163B2, “Anti-VTCN1 antibodies and antibody drug conjugates” (Bluefin BioMedicine, Inc., priority 2017, dated 2025)
# T1: human VTCN1 protein (Homo sapiens, UniProt Q7Z7D3)
# T1 construct: His
# T1 sequence (Q7Z7D3 25-282): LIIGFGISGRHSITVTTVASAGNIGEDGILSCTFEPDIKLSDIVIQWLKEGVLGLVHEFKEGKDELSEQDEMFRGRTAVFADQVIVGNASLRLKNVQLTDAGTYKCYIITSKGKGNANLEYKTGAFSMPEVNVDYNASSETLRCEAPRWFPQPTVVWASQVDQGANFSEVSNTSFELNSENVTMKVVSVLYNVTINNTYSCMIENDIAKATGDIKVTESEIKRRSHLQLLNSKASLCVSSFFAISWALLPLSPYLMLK
# T2: mouse VTCN1 protein (Mus musculus, UniProt Q7TSP5)
# T2 construct: His
# T2 sequence (Q7TSP5 25-257): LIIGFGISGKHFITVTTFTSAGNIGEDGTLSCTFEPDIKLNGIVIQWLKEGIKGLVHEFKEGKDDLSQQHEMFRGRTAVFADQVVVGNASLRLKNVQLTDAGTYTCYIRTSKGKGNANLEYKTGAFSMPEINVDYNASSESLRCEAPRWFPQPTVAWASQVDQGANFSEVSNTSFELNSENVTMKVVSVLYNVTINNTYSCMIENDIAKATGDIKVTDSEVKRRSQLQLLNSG
# T3: 293 cells expressing recombinant human VTCN1 (Homo sapiens, UniProt Q7Z7D3)
# T3 construct: expressed in transfected cells; host or cells: 293 cells
# T3 sequence (Q7Z7D3 25-282): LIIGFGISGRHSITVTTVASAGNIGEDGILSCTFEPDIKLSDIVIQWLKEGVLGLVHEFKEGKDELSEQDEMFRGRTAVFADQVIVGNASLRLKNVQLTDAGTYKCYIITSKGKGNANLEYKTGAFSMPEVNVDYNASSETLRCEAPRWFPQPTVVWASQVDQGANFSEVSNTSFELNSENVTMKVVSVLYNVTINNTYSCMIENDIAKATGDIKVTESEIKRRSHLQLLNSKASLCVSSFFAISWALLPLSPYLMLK
# B1: 4C7_63A1: fully human VTCN1 antibody; VH SEQ ID NO: 248, VL SEQ ID NO: 252 (antibody, V domains shown)
# VH: QVQLQESGPGLVKPSGTLSLTCAVSGGSISSSNWWSWVRQPPGKGLEAIGEIYHSGNTNYNPSLKSRVTISVDKSKNQFSLKLSSVTAADTAIYYCARDGYSSGWYWGYFDYWGQGTLVTVSS
# VL: EIVMTQSPATLSVSPGERATLSCRASQSVNSNLAWYQQKPGQAPWLLIYGASTRATGIPARFSGSGSGTEFTLTISSLQSEDFAVYYCQQYNHWPYTFGQGTKLEIK
# B2: 16H12_60B4: fully human VTCN1 antibody; VH SEQ ID NO: 283, VL SEQ ID NO: 286 (antibody, V domains shown)
# VH: QVQVVQSGAEVKKPGSSVKVSCKASGDTFSNYAISWVRQAPGQGLEWMGGIIPIFGITNYAQKFQGRVTIIADKSTRTAYMELSSLRSEDTAVYYCSRGGPYFDYWGQGILVTVSS
# VL: EIVMTQSPATLSVSPGERATLSCRASQSVSSNLAWYQQKPGQAPRLLIYGASTRATGIPARFSGSGSGTEFTLTISSLQSEDFAVYYCQQYKKWPFTFGPGTKVDIK
# B3: 14D6_60B5: fully human VTCN1 antibody; VH SEQ ID NO: 278, VL SEQ ID NO: 281 (antibody, V domains shown)
# VH: QVQLVHSGAEVKRPGSSVKVSCKASGGTFSSYAISWVRQAPGQGLEWMGGIIPIFGIANYAQKFQGRVTIIADKSTRTAYMELSSLRSEDTAVYYCARGGPYFDYWGQGILVTVSS
# VL: EIVMTQSPATLSVSPGERATLSCRASQSVSSNLAWYQQKPGQAPRLLIYGASTRATGIPARFSGSGSGTEFTLTISSLQSEDFAVYYCQQYNKWPFTFGPGTKVDIK
# B4: 12B5_44B1: fully human VTCN1 antibody; VH SEQ ID NO: 264, VL SEQ ID NO: 268 (antibody, V domains shown)
# VH: QVQLVQSGAEVKKPGSSMKVSCKASGDTFSSYAISWVRQAPGQGLEWMAGIIPVFGTAHNAQKFQGRVTITADKSTSTAYMELSSLRSEDTAVYYCTRGGPYFDYWGQGTLVTVSS
# VL: EIVMTQSPATLSVSPGERAALSCRASQSVSSNLAWYQQKPGQAPRLLIYGVSTRATGIPDRFNGSGSGTEFTLTISSLQSEDFGAYYCQQYKKWPFIFGPGTKLEIK
# B5: 6D9-mIgG1: 6D9 antibody converted from a mouse IgG2a to a mouse IgG1 (antibody, V domains shown)
# VH: QIQLQQSGPGLVQPSQSLSITCTVSGFSLTSYGVQWIRQSPGKGLEWLGVIWSSGSTDYNAAFLSRLSFSKDNSKSQVFFQMNSLQADDSAIYYCARDVTTIVEGFAHWGQGTLVTVSA
# VL: NIVMTQSPKSMSMSVGERVTLSCKASEKVGTYVSWYQQKPEQSPKLLIYGASNRYTGVPDRFTGSGSATDFTLTISSVQVEDLADYHCGQTYSYPFTFGSGTKLEIK
# Legend:
# human VTCN1 protein = biological target: T1, human VTCN1 protein; assay: Affinity to recombinant VTCN1-his by OCTET Red (Protein A biosensors); type: binding; settings: Table 12
# Procedure: (§1) The affinity of antibodies to recombinant VTCN1 was determined on an OCTET™ Red (Pall, ForteBio) instrument. After loading reagents into a 96-well plate, the OCTET™ Red with Protein A-conjugated biosensors was programmed as follows: 30 seconds for baseline #1; 45 seconds to immobilize the antibody; 30 seconds for baseline #2; 300 seconds for association of antibody to recombinant VTCN1-his; and 300 seconds for dissociation of recombinant VTCN1-his from the antibody. Table 5 lists the affinity measured for selected antibodies.
# [1] = system: cynomolgus monkey VTCN1 protein; assay: Affinity by OCTET, cynomolgus monkey VTCN1; type: binding; settings: Table 12
# Procedure: The affinity of antibodies to recombinant VTCN1 was determined on an OCTET™ Red (Pall, ForteBio) instrument. After loading reagents into a 96-well plate, the OCTET™ Red with Protein A-conjugated biosensors was programmed as follows: 30 seconds for baseline #1; 45 seconds to immobilize the antibody; 30 seconds for baseline #2; 300 seconds for association of antibody to recombinant VTCN1-his; and 300 seconds for dissociation of recombinant VTCN1-his from the antibody.
# mouse VTCN1 protein = biological target: T2, mouse VTCN1 protein; assay: Affinity by OCTET, mouse VTCN1; type: binding; settings: Table 12
# Procedure: as §1
# [2] = biological target: T3, 293 cells expressing recombinant human VTCN1; assay: Cell-based competition binding FACS assay against 6D9; settings: 6D9 10 μg/ml, human antibody 1 μg/ml
# Procedure: To assess if these human VTCN1 antibodies bind to same or different regions of VTCN1 protein, a cell-based competition binding FACS assay was performed. […] The cells were then resuspend in FACS buffer with DAPI, and analyzed by flow cytometry.
# KLN205 tumors = assay: KLN205 syngeneic mouse lung squamous tumor model in DBA2 mice; type: in vivo
# Procedure: For the tumor study. 6-8 week-old female DBA2 mice were implanted subcutaneously in the right flank with 2.5×10^5 mouse lung squamous carcinoma KLN205 cells in 50% matrigel on day 0. Mice were treated with PBS as a vehicle control, a mouse IgG isotype control (10 mg/kg), or anti-VTCN1 6D9 antibody (10 mg/kg) on days 3, 6, 10, 13, 15, 17, 20, and 22 following tumor implantation by intraperitoneal (i.p.) injection. Tumors were measured using an electronic caliper twice a week and tumor volume was calculated using the formula 0.52*length*width*width. Mouse body weight was also measured and recorded.
# 6-8 week-old female DBA2 mice were implanted subcutaneously in the right flank with 2.5×10^5 mouse lung squamous carcinoma cell KLN205 cells in 50% matrigel on day 0. Tumors were measured on day 7 and mice are randomized to 7 treatment groups. The average size was 50 mm^3. The treatment groups were: PBS vehicle control, mIgG2a isotype control. 6D9, anti-mouse PD1 antibody RMP1-14, 6D9+RMP1-14, anti-mouse CTLA-4 antibody 9D9, and 6D9+9D9. The mice were treated on days 8, 11, 13, 15, 18, 20, 22, and 25. All antibodies were 10 mg/kg by i.p.
# To test the activity of the 6D9 and 6D9-mIgG1 antibodies, 6-8 weeks old female DBA2 mice were implanted subcutaneously in the right flank with 0.2 million KLN205 cells in PBS on day 0. Mice were randomized on day 9 into 3 treatment groups, mIgG1 control. 6D9-mIgG1, 6D9-mIgG2a. Mice were treated on days 9, 11, 15, 18, and 22 by i.p. with 200 μg antibodies (10 mg/kg). […] However.
Molecule,Human K(off) (human VTCN1 protein),Human k(on) (human VTCN1 protein),cynomolgus monkey k(off) [1],cynomolgus monkey k(on) [1],mouse k(off) (mouse VTCN1 protein),mouse k(on) (mouse VTCN1 protein),competition with 6D9 for binding to VTCN1 [2],mouse survival / time to tumor end point 1500 mm^3 (KLN205 tumors; Example 15),"KLN205 primary tumor growth, isotype comparison (KLN205 tumors; Example 15, 200 μg (10 mg/kg) i.p. from day 9)"
B1,5.81E−03,1.19E+05,5.80E−03,1.23E+05,4.01E−03,9.07E+04,compete with 6D9,–,–
B2,1.95E−04,2.62E+05,2.40E−04,2.45E+05,3.76E−03,1.37E+05,do not compete with 6D9,–,–
B3,6.29E−04,1.32E+05,6.91E−04,1.32E+05,6.47E−03,1.15E+05,do not compete with 6D9,–,–
B4,3.54E−04,1.61E+05,3.74E−04,1.80E+05,8.11E−03,2.15E+05,do not compete with 6D9,–,–
B5,–,–,–,–,–,–,–,prolonged mouse survival,inhibit primary tumor growth
